Measurements from patent US7005505.
Read-outs that look alike come from different tables or passages of the source.

Experiments:
KDR-IgG [1] = biological target: KDR-IgG (UniProt P35968); assay: competition with 125I-VEGF165 for KDR-IgG, radioligand plate assay
KDR-IgG [2] = biological target: KDR-IgG (UniProt P35968); assay: competition with 125I-VEGF165 for KDR-IgG, radioligand plate assay, no heparin
[3] = biological target: KDR receptors on endothelial cells (bovine); assay: cell-based or functional assay
FLT-1 IgG [4] = biological target: FLT-1 IgG (UniProt P17948); assay: competition with 125I-VEGF165 for FLT-1-IgG, radioligand plate assay, no heparin
[5] = biological target: KDR receptors on endothelial cells (bovine); assay: cell-based or functional assay; remark: listed apart in the source
FLT-1 IgG [6] = biological target: FLT-1 IgG (UniProt P17948); assay: competition with 125I-VEGF165 for FLT-1-IgG, radioligand plate assay

FLT-1 IgG, sequence (P17948 27-758): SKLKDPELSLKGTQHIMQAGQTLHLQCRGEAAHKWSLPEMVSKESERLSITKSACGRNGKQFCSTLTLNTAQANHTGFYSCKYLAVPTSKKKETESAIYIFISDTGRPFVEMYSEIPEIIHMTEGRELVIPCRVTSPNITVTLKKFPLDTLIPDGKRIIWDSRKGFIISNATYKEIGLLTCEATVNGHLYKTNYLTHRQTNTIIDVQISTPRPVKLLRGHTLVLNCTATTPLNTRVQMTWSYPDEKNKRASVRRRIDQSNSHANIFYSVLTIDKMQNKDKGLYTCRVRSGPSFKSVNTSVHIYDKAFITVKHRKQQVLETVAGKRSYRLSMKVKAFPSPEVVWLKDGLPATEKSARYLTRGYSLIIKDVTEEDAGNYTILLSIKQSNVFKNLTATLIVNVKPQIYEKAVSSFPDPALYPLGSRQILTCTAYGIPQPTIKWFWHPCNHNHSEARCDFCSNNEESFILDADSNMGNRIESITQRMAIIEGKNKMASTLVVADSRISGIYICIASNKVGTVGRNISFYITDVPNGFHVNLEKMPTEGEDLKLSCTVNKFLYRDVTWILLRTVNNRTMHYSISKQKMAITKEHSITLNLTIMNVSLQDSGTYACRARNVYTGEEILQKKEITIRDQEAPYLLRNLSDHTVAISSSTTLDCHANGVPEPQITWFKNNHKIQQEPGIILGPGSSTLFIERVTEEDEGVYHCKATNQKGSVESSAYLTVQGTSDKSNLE
KDR-IgG, sequence (P35968 20-764): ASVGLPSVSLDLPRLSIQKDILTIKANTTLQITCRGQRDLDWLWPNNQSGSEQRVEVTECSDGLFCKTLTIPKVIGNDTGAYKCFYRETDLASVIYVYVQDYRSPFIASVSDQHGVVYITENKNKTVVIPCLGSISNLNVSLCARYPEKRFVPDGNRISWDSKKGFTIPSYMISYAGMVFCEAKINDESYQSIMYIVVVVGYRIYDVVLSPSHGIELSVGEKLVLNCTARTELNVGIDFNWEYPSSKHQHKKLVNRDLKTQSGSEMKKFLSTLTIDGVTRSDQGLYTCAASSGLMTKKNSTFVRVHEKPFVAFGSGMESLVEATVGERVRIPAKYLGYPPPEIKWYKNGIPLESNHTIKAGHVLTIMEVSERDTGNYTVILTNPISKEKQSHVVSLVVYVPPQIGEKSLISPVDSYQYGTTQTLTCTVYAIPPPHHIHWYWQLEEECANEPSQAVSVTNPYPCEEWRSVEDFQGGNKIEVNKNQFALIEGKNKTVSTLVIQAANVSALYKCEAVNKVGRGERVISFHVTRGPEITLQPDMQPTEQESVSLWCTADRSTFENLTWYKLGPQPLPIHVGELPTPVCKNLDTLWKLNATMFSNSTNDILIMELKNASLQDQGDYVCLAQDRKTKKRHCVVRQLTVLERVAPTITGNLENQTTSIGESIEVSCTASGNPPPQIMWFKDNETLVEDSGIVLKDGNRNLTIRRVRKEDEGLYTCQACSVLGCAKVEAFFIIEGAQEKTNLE
KDR receptors on endothelial cells (bovine), sequence (P12820 29-1306): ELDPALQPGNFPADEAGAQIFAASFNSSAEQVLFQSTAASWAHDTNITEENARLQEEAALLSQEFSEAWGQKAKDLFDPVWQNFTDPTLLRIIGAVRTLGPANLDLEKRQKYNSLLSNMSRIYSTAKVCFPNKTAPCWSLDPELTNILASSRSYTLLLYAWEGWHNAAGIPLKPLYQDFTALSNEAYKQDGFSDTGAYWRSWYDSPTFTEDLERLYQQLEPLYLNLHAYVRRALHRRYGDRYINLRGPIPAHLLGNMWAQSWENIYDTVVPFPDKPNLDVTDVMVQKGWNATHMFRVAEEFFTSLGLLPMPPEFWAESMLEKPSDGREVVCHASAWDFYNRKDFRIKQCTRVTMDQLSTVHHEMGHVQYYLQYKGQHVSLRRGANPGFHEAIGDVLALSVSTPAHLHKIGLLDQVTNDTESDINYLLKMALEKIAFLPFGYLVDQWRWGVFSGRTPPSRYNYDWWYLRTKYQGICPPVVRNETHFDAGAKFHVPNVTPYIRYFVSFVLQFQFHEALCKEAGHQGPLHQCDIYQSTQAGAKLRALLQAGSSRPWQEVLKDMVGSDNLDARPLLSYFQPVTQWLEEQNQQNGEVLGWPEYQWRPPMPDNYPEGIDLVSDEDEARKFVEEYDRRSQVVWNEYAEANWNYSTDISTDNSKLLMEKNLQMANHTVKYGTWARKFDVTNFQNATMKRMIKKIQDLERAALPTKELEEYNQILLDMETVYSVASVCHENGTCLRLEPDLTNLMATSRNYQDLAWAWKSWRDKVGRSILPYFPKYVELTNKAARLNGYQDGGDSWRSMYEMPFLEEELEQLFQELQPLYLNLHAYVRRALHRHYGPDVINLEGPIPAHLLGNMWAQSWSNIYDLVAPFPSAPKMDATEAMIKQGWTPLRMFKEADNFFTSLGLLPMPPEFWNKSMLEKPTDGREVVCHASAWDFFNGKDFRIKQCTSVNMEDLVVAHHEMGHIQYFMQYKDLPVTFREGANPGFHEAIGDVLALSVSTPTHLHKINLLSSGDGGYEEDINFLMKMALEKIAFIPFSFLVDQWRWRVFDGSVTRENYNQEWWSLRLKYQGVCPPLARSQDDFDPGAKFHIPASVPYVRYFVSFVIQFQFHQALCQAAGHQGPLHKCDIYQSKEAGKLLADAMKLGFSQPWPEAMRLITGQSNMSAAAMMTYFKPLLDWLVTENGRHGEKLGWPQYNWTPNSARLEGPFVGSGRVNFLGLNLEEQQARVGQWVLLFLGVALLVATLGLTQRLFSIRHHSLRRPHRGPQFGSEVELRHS

K16A, D19T VEGF (from UniProt P15692 181-395) (ligand)
IC50 (KDR-IgG [1]): 2.1 ng/mL
IC50 (KDR-IgG [2]): 0.026 nM
Half-Maximal Effective Concentration, Endothelial Cells [3]: 2.05 ng/mL
IC50 (FLT-1 IgG [4]): 0.019 nM
Half-Maximal Effective Concentration, Endothelial Cells [5]: 53 pM
IC50 (FLT-1 IgG [6]): 0.73 ng/mL
